{"source": "patent US11033620B2", "about": "“Combination therapies targeting tumor-associated stroma or tumor cells and microtubules” (BIOMED VALLEY DISCOVERIES, INC., priority 2014, dated 2021)", "molecules": {"B1": {"name": "M830: TEM8 monoclonal antibody (hIgG1), VH SEQ ID NO:5, VL SEQ ID NO:6 (antibody, V domains shown)", "VH": "EVQLVESGGGVVQPGRSVRLSCAASGFTFSTYTMHWVRQAPGKGLEWVAIISNDGSNKYYADPVRGRFTISRDNSKNTLYLQMNSLRAEDTAVYYCVRGSSWYRGNWFDPWGQGTLVTVSS", "VL": "DIQMTQSPSSLSASVGDRVTIACRASQTISRYLNWYQQKPGKAPKLLIYAASSLQSGVSSRFSGSGSGTEFTLTISSLQPEDFATYFCQQTYSPPITFGQGTRLEIKR", "modifications": "TEM830 mAb VH; TEM830 mAb VL"}}, "tested_on": "H460 cells", "test": "Efficacy of M830 in the H460 non-small cell lung carcinoma xenograft model", "assay_type": "in vivo, mouse", "details": "combination partner Paclitaxel", "procedure": "Animals were monitored for regression responses.\nThe statistical tests were not adjusted for multiple comparisons.\nCultured H460 cells were harvested during exponential growth and resuspended in phosphate buffered saline at a concentration of 1×10^8 cells/mL. 1.0×10^7 tumor cells were injected subcutaneously into the flank of athymic nude mice. Animals were euthanized when tumors reached the pre-determined volume endpoint of 2000 mm^3 or on the final day (Day 88), whichever came first."}
{"molecule": "B1", "values": [{"measurement": "regression (in % Tumor Reduction vs. Vehicle at Day 21 cell)", "value": "−61", "unit": "%"}]}
